For test [1], the target named is mitochondrial transcription factor B2 (TFB2M) protein (human) (UniProt Q9H5Q4). The experiment in a line: in situ proximity ligation assay (anti-TFAM sc-376672 and anti-TFB2M 13676), fixed PBMCs from healthy controls (n=20), mean.
The target is the same in test [2]. The experiment in a line: in situ proximity ligation assay (anti-TFAM sc-376672 and anti-TFB2M 13676), fixed PBMCs from septic patients (n=10), mean.

Chain of UniProt Q9H5Q4 (Q9H5Q4 44-396): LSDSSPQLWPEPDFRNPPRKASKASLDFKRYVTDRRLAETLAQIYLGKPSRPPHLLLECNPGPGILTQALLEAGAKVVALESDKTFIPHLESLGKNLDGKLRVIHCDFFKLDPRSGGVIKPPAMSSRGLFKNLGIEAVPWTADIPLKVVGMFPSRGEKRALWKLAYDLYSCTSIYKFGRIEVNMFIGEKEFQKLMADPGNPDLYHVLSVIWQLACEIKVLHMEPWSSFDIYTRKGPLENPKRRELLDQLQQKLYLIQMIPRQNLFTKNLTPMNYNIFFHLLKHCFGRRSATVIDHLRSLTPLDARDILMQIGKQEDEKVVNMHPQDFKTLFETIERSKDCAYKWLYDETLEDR

As to “mature mitochondrial transcription factor A (TFAM) protein (from UniProt Q00059 43-246)”, the values for the PLA signals per cell (signals per cell) in test [1] and in test [2] were 4.5 and 1.2, respectively.
